Literature values as cited in article PMC10845085.

Biological target: Neurotensin (Homo sapiens) (UniProt P30990)

Substance: Neurotensin receptor 2 (from UniProt O95665)
- Kd: 6 nM
